Data from paper PMC3462610 (Biochemical Journal, 2011).

Tests used:
HA–JNK1 = test: GST pull-down with WDR62 1018-C–GST constructs; type: binding, human; conditions: HEK-293T; for association with HA–JNK1: anti-HA/anti-pJNK
HA–JNK2 [1] = test: GST pull-down with WDR62 1018-C–GST constructs; type: binding, human; conditions: HEK-293T; for association with HA–JNK2: anti-HA/anti-pJNK
His–JNK2 = test: In vitro protein-binding assay; parameters: species or system human; conditions: purified proteins, 2 h at 37°C, amylose resin
His–MKK7β1 = test: In vitro protein-binding assay; parameters: species or system human; conditions: purified proteins, 2 h at 37°C, amylose resin
WDR62 = test: GST pull-down of MKK4 with WDR62 fragments; type: binding, human; conditions: HEK-293T, compared with MKK7–WDR62
GST–MKK7β1 = test: GST pull-down of WDR62 fragments with GST–MKK7β1; type: binding, human; conditions: HEK-293T
HA–JNK2 [2] = test: Co-immunoprecipitation of HA–JNK2 with Myc-tagged WDR62 constructs, HEK-293T; type: binding, human; conditions: quantified, means±S.D., three independent experiments

B1: 1018-C–GST: wild-type WDR62-1018-C fused to GST (protein)
chain: RFATSLPHFPGCAGPTEDELSLPEGPSVPSSSLPQTPEQEKFLRHHFETLTESPCRELFPAALGDVEASEAEDHFFNPRLSISTQFLSSLQKASRFTHTFPPRATQCLVKSPEVKLMDRGGSQPRAGTGYASPDRTHVLAAGKAEETLEAWRPPPPCLTSLASCVPASSVLPTDRNLPTPTSAPTPGLAQGVHAPSTCSYMEATASSRARISRSISLGDSEGPIVATLAQPLRRPSSVGELASLGQELQAITTATTPSLDSEGQEPALRSWGNHEARANLRLTLSSACDGLLQPPVDTQPGVTVPAVSFPAPSPVEESALRLHGSAFRPSLPAPESPGLPAHPSNPQLPEARPGIPGGTASLLEPTSGALGLLQGSPARWSEPWVPVEALPPSPLELSRVGNILHRLQTTFQEALDLYRVLVSSGQVDTGQQQARTELVSTFLWIHSQLEAECLVGTSVAPAQALPSPGPPSPPTLYPLASPDLQALLEHYSELLVQAVRRKARGH
- association with HA–JNK1 (HA–JNK1): efficiently precipitated
- association with HA–JNK2 (HA–JNK2 [1]): efficiently precipitated

B2: MBP-1018-C: MBP fused to human WDR62 1018-C fragment (protein)
chain: RFATSLPHFPGCAGPTEDELSLPEGPSVPSSSLPQTPEQEKFLRHHFETLTESPCRELFPAALGDVEASEAEDHFFNPRLSISTQFLSSLQKASRFTHTFPPRATQCLVKSPEVKLMDRGGSQPRAGTGYASPDRTHVLAAGKAEETLEAWRPPPPCLTSLASCVPASSVLPTDRNLPTPTSAPTPGLAQGVHAPSTCSYMEATASSRARISRSISLGDSEGPIVATLAQPLRRPSSVGELASLGQELQAITTATTPSLDSEGQEPALRSWGNHEARANLRLTLSSACDGLLQPPVDTQPGVTVPAVSFPAPSPVEESALRLHGSAFRPSLPAPESPGLPAHPSNPQLPEARPGIPGGTASLLEPTSGALGLLQGSPARWSEPWVPVEALPPSPLELSRVGNILHRLQTTFQEALDLYRVLVSSGQVDTGQQQARTELVSTFLWIHSQLEAECLVGTSVAPAQALPSPGPPSPPTLYPLASPDLQALLEHYSELLVQAVRRKARGH
- precipitation of His–JNK2 (His–JNK2): efficiently precipitated His–JNK2
- precipitation of His–MKK7β1 (His–MKK7β1): efficiently precipitated

B3: MKK4: HA-tagged human MKK4 (protein)
chain: MAAPSPSGGGGSGGGSGSGTPGPVGSPAPGHPAVSSMQGKRKALKLNFANPPFKSTARFTLNPNPTGVQNPHIERLRTHSIESSGKLKISPEQHWDFTAEDLKDLGEIGRGAYGSVNKMVHKPSGQIMAVKRIRSTVDEKEQKQLLMDLDVVMRSSDCPYIVQFYGALFREGDCWICMELMSTSFDKFYKYVYSVLDDVIPEEILGKITLATVKALNHLKENLKIIHRDIKPSNILLDRSGNIKLCDFGISGQLVDSIAKTRDAGCRPYMAPERIDPSASRQGYDVRSDVWSLGITLYELATGRFPYPKWNSVFDQLTQVVKGDPPQLSNSEEREFSPSFINFVNLCLTKDESKRPKYKELLKHPFILMYEERAVEVACYVCKILDQMPATPSSPMYVD
- MKK4–WDR62 interaction (WDR62): weaker than the MKK7–WDR62 interaction

B4: 1018-CΔD–GST: WDR62-1018-C lacking the D domain fused to GST (protein)
chain: RFATSLPHFPGCAGPTEDELSLPEGPSVPSSSLPQTPEQEKFLRHHFETLTESPCRELFPAALGDVEASEAEDHFFNPRLSISTQFLSSLQKASRFTHTFPPRATQCLVKSPEVKLMDRGGSQPRAGTGYASPDRTHVLAAGKAEETLEAWRPPPPCLTSLASCVPASSVLPTDRNLPTPTSAPTPGLAQGVHAPSTCSYMEATASSRARISRSISLGDSEGPIVATLAQPLRRPSSVGELASLGQELQAITTATTPSLDSEGQEPALRSWGNHEASSACDGLLQPPVDTQPGVTVPAVSFPAPSPVEESALRLHGSAFRPSLPAPESPGLPAHPSNPQLPEARPGIPGGTASLLEPTSGALGLLQGSPARWSEPWVPVEALPPSPLELSRVGNILHRLQTTFQEALDLYRVLVSSGQVDTGQQQARTELVSTFLWIHSQLEAECLVGTSVAPAQALPSPGPPSPPTLYPLASPDLQALLEHYSELLVQAVRRKARGH
- association with HA–JNK1 (HA–JNK1): relatively weak interaction
- pJNK1 in precipitate (HA–JNK1; anti-pJNK): no pJNK1/2 was detected
- association with HA–JNK2 (HA–JNK2 [1]): relatively weak interaction
- pJNK2 in precipitate (HA–JNK2 [1]; anti-pJNK): no pJNK1/2 was detected

B5: Myc-1018-CΔD (protein)
chain: RFATSLPHFPGCAGPTEDELSLPEGPSVPSSSLPQTPEQEKFLRHHFETLTESPCRELFPAALGDVEASEAEDHFFNPRLSISTQFLSSLQKASRFTHTFPPRATQCLVKSPEVKLMDRGGSQPRAGTGYASPDRTHVLAAGKAEETLEAWRPPPPCLTSLASCVPASSVLPTDRNLPTPTSAPTPGLAQGVHAPSTCSYMEATASSRARISRSISLGDSEGPIVATLAQPLRRPSSVGELASLGQELQAITTATTPSLDSEGQEPALRSWGNHEASSACDGLLQPPVDTQPGVTVPAVSFPAPSPVEESALRLHGSAFRPSLPAPESPGLPAHPSNPQLPEARPGIPGGTASLLEPTSGALGLLQGSPARWSEPWVPVEALPPSPLELSRVGNILHRLQTTFQEALDLYRVLVSSGQVDTGQQQARTELVSTFLWIHSQLEAECLVGTSVAPAQALPSPGPPSPPTLYPLASPDLQALLEHYSELLVQAVRRKARGH
- association with MKK7β1, in words (GST–MKK7β1): efficiently precipitated with GST–MKK7β1

B6: Myc-1212-C: Myc-tagged WDR62 aa 1212–1523 (protein)
chain: PSTCSYMEATASSRARISRSISLGDSEGPIVATLAQPLRRPSSVGELASLGQELQAITTATTPSLDSEGQEPALRSWGNHEARANLRLTLSSACDGLLQPPVDTQPGVTVPAVSFPAPSPVEESALRLHGSAFRPSLPAPESPGLPAHPSNPQLPEARPGIPGGTASLLEPTSGALGLLQGSPARWSEPWVPVEALPPSPLELSRVGNILHRLQTTFQEALDLYRVLVSSGQVDTGQQQARTELVSTFLWIHSQLEAECLVGTSVAPAQALPSPGPPSPPTLYPLASPDLQALLEHYSELLVQAVRRKARGH
- association with MKK7β1, in words (GST–MKK7β1): efficiently associated

B7: Myc-N-1284: Myc-tagged WDR62 aa 1–1284 (protein)
chain: MAAVGSGGYARNDAGEKLPSVMAGVPARRGQSSPPPAPPICLRRRTRLSTASEETVQNRVSLEKVLGITAQNSSGLTCDPGTGHVAYLAGCVVVILDPKENKQQHIFNTARKSLSALAFSPDGKYIVTGENGHRPAVRIWDVEEKNQVAEMLGHKYGVACVAFSPNMKHIVSMGYQHDMVLNVWDWKKDIVVASNKVSCRVIALSFSEDSSYFVTVGNRHVRFWFLEVSTETKVTSTVPLVGRSGILGELHNNIFCGVACGRGRMAGSTFCVSYSGLLCQFNEKRVLEKWINLKVSLSSCLCVSQELIFCGCTDGIVRIFQAHSLHYLANLPKPHYLGVDVAQGLEPSFLFHRKAEAVYPDTVALTFDPIHQWLSCVYKDHSIYIWDVKDINRVGKVWSELFHSSYVWNVEVYPEFEDQRACLPSGSFLTCSSDNTIRFWNLDSSPDSHWQKNIFSNTLLKVVYVENDIQHLQDMSHFPDRGSENGTPMDVKAGVRVMQVSPDGQHLASGDRSGNLRIHELHFMDELVKVEAHDAEVLCLEYSKPETGLTLLASASRDRLIHVLNVEKNYNLEQTLDDHSSSITAIKFAGNRDIQMISCGADKSIYFRSAQQGSDGLHFVRTHHVAEKTTLYDMDIDITQKYVAVACQDRNVRVYNTVNGKQKKCYKGSQGDEGSLLKVHVDPSGTFLATSCSDKSISVIDFYSGECIAKMFGHSEIITSMKFTYDCHHLITVSGDSCVFIWHLGPEITNCMKQHLLEIDHRQQQQHTNDKKRSGHPRQDTYVSTPSEIHSLSPGEQTEDDLEEECEPEEMLKTPSKDSLDPDPRCLLTNGKLPLWAKRLLGDDDVADGLAFHAKRSYQPHGRWAERAGQEPLKTILDAQDLDCYFTPMKPESLENSILDSLEPQSLASLLSESESPQEAGRGHPSFLPQQKESSEASELILYSLEAEVTVTGTDSQYCRKEVEAGPGDQQGDSYLRVSSDSPKDQSPPEDSGESEADLECSFAAIHSPAPPPDPAPRFATSLPHFPGCAGPTEDELSLPEGPSVPSSSLPQTPEQEKFLRHHFETLTESPCRELFPAALGDVEASEAEDHFFNPRLSISTQFLSSLQKASRFTHTFPPRATQCLVKSPEVKLMDRGGSQPRAGTGYASPDRTHVLAAGKAEETLEAWRPPPPCLTSLASCVPASSVLPTDRNLPTPTSAPTPGLAQGVHAPSTCSYMEATASSRARISRSISLGDSEGPIVATLAQPLRRPSSVGELASLGQELQAITTATTPSLDSEGQEPA
- reduction of precipitated JNK2 as compared with CS2 and CS5 full-length proteins (HA–JNK2 [2]): 7 -fold

B8: Myc-1232-C: Myc-tagged WDR62 aa 1232–1523 (protein)
chain: ISLGDSEGPIVATLAQPLRRPSSVGELASLGQELQAITTATTPSLDSEGQEPALRSWGNHEARANLRLTLSSACDGLLQPPVDTQPGVTVPAVSFPAPSPVEESALRLHGSAFRPSLPAPESPGLPAHPSNPQLPEARPGIPGGTASLLEPTSGALGLLQGSPARWSEPWVPVEALPPSPLELSRVGNILHRLQTTFQEALDLYRVLVSSGQVDTGQQQARTELVSTFLWIHSQLEAECLVGTSVAPAQALPSPGPPSPPTLYPLASPDLQALLEHYSELLVQAVRRKARGH
- association with MKK7β1, in words (GST–MKK7β1): but not Myc-1232-C

B9: Myc-1018-1284: Myc-tagged WDR62 aa 1018–1284 (protein)
chain: RFATSLPHFPGCAGPTEDELSLPEGPSVPSSSLPQTPEQEKFLRHHFETLTESPCRELFPAALGDVEASEAEDHFFNPRLSISTQFLSSLQKASRFTHTFPPRATQCLVKSPEVKLMDRGGSQPRAGTGYASPDRTHVLAAGKAEETLEAWRPPPPCLTSLASCVPASSVLPTDRNLPTPTSAPTPGLAQGVHAPSTCSYMEATASSRARISRSISLGDSEGPIVATLAQPLRRPSSVGELASLGQELQAITTATTPSLDSEGQEPA
- association with MKK7β1, in words (GST–MKK7β1): efficiently associated
